The results in this text go back to patent publication US20220356267A1 (JIANGSU KANION PHARMACEUTICAL, published 2022).

In one test the target is T1, CD73 on A549 cells (UniProt P21589 27-549, limits assumed).
T1 sequence (looked up): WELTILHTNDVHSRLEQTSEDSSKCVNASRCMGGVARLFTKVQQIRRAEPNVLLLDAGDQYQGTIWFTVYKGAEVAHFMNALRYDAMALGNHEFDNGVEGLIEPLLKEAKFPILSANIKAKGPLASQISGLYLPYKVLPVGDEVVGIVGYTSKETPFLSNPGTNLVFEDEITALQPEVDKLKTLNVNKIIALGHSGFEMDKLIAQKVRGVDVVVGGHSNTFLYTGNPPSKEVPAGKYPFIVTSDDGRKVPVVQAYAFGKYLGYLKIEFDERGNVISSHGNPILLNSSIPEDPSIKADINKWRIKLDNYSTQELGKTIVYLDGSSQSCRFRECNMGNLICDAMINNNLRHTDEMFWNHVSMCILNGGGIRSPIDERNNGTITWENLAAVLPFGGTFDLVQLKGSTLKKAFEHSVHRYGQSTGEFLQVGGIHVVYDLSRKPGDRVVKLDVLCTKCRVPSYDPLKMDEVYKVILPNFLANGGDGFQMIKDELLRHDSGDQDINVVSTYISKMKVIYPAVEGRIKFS
The test is described as follows: cell-based or functional assay.

Test [1] deals with T2, recombinant human CD73 protein (ecto-5'-nucleotidase), expressed by the applicant, C-terminal 6x His tag (human, UniProt P21589 27-547).
T2 sequence: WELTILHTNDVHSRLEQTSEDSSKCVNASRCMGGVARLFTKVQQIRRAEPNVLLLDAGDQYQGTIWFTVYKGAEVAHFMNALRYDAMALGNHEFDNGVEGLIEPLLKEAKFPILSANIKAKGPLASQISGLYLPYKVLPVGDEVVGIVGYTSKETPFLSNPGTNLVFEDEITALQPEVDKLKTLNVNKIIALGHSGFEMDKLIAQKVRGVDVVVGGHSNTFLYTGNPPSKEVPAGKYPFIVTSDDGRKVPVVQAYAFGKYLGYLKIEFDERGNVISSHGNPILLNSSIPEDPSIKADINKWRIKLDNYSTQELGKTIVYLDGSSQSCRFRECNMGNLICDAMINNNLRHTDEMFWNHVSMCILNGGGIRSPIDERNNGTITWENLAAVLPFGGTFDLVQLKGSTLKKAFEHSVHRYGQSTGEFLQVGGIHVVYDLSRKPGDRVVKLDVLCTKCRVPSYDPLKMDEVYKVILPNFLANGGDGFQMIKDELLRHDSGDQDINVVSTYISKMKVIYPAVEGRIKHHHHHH
Nature of the test: cell-based or functional assay.

For test [2], the target named is T2, recombinant human CD73 protein …. Nature of the test: SPR (Biacore T200), antibody captured on anti-mouse Fc IgG chip, human CD73 injected in a concentration series, 25 C, 1:1 fit; the sheet prints E-4 where the 1st table, row 5, column 4 prints 10^-5; E-4 agrees with the printed ka 4.764E+5 and KD 8.129E-10. On the technique in general: In SPR one partner is held on a chip, and binding of the other changes the refractive index at the surface.
Description: (§1) Anti-mouse Fc IgG was fixated on a CMS sensor chip by amine coupling in order to capture the antibody under test with the coupled anti-mouse Fc IgG. A series of human CD73 proteins having a predetermined concentration gradient were then injected, before the pH 1.7 glycine-HCl regeneration testing system that came with the reagent kit was used.
(§2) HBS-EP+ (10 mM HEPES; pH7.4, 150 mM NaCl; 3 mM EDTA; and 0.05% P20) was used as the running buffer, and the testing temperature was 25° C.
(§3) The binding constant (Ka), dissociation rate constant (Kd), and equilibrium constant (KD) were calculated with the Biacore T200 evaluation software by combining the model fitting data at a 1:1 ratio.

Test [3] shares this target. Nature of the test: SPR, Biacore T200, antibody captured by anti-mouse Fc IgG, human CD73 injected, 25 °C, 1:1 fit.
Description: as §1, §2, §3

B1: anti-CD73 monoclonal antibody E1-B6 (antibody, V domains shown)
VH: VKLQESGAELARPGASVKLSCKASGYTFTDYYINWVKQRTGQGLEWIGETYPGNGNTYYHEKFKGKATLTADRSSSTAYMQLSSLTSEDSAVYFCARGTYYGSSEYFDYWGQGTTVTVSS
VL: DIVMTQSPKFMSTSVGDRVSITCKASQNVGTAVAWYQQRPGQSPKLLIYSASNRNTGVPDRFTGSGSGTDFTLTISNMQSEDLADYFCQQYSSYIFTFGSGTKLEIN
notes: Mouse hybridoma antibody of the IgG type, purified from ascitic fluid
Broadly, the koff is the first-order rate constant of dissociation. As a reminder, the Kd is a measure of binding affinity in units of concentration. The kon is the rate constant with which the complex forms. Consider B1, for which the “EC50 (µg/mL), Cell level (A549 cells), inhibition of the enzyme activity of CD73” value with CD73 on A549 cells came out at 0.182 µg/mL. Further, the “EC50 (µg/mL), Biochemical level, inhibition of the enzyme activity of CD73” value in test [1] worked out at 0.232 µg/mL. Also, the koff in test [2] amounted to 0.000387 s⁻¹. In test [3], the Kd stood at 0.813 nM, the koff was found to be 0.000387 s⁻¹ and the kon came out at 476000 M⁻¹ s⁻¹.

B2: anti-CD73 monoclonal antibody 9-4 (antibody, V domains shown)
VH: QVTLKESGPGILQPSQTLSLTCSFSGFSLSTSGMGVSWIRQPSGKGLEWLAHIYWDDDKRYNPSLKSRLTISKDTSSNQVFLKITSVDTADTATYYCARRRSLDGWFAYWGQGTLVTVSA
VL: DIQMTQSPAALSASVGETVTITCRASGNIHNYLAWYQQKQGKSPQLLVYNTQILADGVPSRFSGSGSGTQYSLKINSLQPEDFGTFYCQHFWDSPWTFGGGTKMEIK
notes: as for B1
As for B2, in the test with CD73 on A549 cells, the “EC50 (µg/mL), Cell level (A549 cells), inhibition of the enzyme activity of CD73” value was 0.175 µg/mL. For the same molecule, the “EC50 (µg/mL), Biochemical level, inhibition of the enzyme activity of CD73” value in test [1] turned out to be 0.211 µg/mL. In addition, in test [3], the Kd was determined as 0.452 nM, the koff came out at 0.00015 s⁻¹ and the kon turned out to be 332000 M⁻¹ s⁻¹.

B3: anti-CD73 monoclonal antibody F2-2 (antibody, V domains shown)
VH: VQLQESGPGLVKPSQSLSLTCTVTGHSITSDYVWNWIRQFPGNKLEWMGYISYSGIIKYNPSLKSRISITRDTSKNQFFLQLNSVTTEDTATYYCAGDEYFWFAYWGQGTTVTVSS
VL: DIQMTQSPSSMYASLGERVTITCKASQDIKSYLSWYQQKPWKSPKTLIYYATNLADGVPSRFSGSGSGQDYSLTISSLESDDTATYYCLQHGESPYTFGGGTKLEIK
notes: as for B1
Consider B3, for which the “EC50 (µg/mL), Cell level (A549 cells), inhibition of the enzyme activity of CD73” value with CD73 on A549 cells worked out at 0.0397 µg/mL. The “EC50 (µg/mL), Biochemical level, inhibition of the enzyme activity of CD73” value in test [1] is 0.109 µg/mL. Also, in test [3], the Kd was determined as 0.0318 nM, the koff was found to be 1.71e-05 s⁻¹ and the kon amounted to 538000 M⁻¹ s⁻¹.

B4: anti-CD73 monoclonal antibody 81-2-2 (antibody, V domains shown)
VH: QVQLQQPGAELVKPGASVKLSCKASGYTFTSYWMHWVKQRPGQGLEWIGEINPSNGRTNYNEKFKSKATLTVDKSSSTAYMQLSSLTSEDSAVYYCARRGTSGNFFDYWGQGTTLTVSS
VL: DIKMTQSPSSMYASLGERVTITCKASQDINTYLSWFQQKPGKSPKTLIYRANRLVDGVPSRFSGSGSGQDYSLTISSLEYEDMGIYYCLQFDEFPYTFGGGTKLEIK
notes: as for B1
With B4, the “EC50 (µg/mL), Cell level (A549 cells), inhibition of the enzyme activity of CD73” value with CD73 on A549 cells is 0.213 µg/mL. In test [1], the “EC50 (µg/mL), Biochemical level, inhibition of the enzyme activity of CD73” value amounted to 0.239 µg/mL. Moreover, in test [3], the Kd amounted to 0.49 nM, the koff came to 0.000104 s⁻¹ and the kon was 212000 M⁻¹ s⁻¹.

B5: anti-CD73 monoclonal antibody 06-6 (antibody, V domains shown)
VH: QVQLQQSGPELVKPGASVRISCKASGYTFADYFMHWVRLRPGQGLEWIGWIYPGYVNIKYNEKFKGKATLTADKSSSTAYMQLSSLTSEDSAVYFCARGEDYDSAMDYWGQGTSVTVSS
VL: GVVMTQTPLSLPVSLGDQASISCRSSQSLVHSNGNTYLHWYLQKPGQSPKLLIYKVSNRFSGVPDRFSGSGSGTDFTLKISRVEAEDLGVYFCSQSTHVPPWTFGGGTKLEIK
notes: as for B1
As to B5, in the test with CD73 on A549 cells, the “EC50 (µg/mL), Cell level (A549 cells), inhibition of the enzyme activity of CD73” value is 0.147 µg/mL. The “EC50 (µg/mL), Biochemical level, inhibition of the enzyme activity of CD73” value in test [1] came to 0.206 µg/mL. Further, in test [3], the Kd worked out at 0.753 nM, the koff turned out to be 0.000183 s⁻¹ and the kon was 242000 M⁻¹ s⁻¹.
